This passage reports IC50 results from patent publication US20200207853A1 (PHANES THERAPEUTICS, published 2020).

This assay deals with T1, Recombinant human CD47(ECD)-HIS (human, UniProt Q08722 19-139, limits assumed).
T1 construct: also called huCD47-HIS; not shown: HIS tag
The assay is described as follows: competition ELISA: blocking of SIRPα binding to CD47(ECD)-HIS. (ELISA stands for enzyme-linked immunosorbent assay.)

Where a chain is given by its changes, count along the chain named.

T1 sequence (Q08722 19-139 limits assumed): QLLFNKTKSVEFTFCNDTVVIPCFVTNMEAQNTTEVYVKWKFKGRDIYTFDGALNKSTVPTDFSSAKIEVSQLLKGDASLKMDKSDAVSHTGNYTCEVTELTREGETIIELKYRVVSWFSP

B1: H8L10 (antibody, V domains shown)
VH: QVQLVQSGAEVKKPGASVKVSCKASGYTFTSYWMHWVRQAPGQGLEWIGNIDPSDSETHYAQKFQGRVTLTVDKSTSTVYMELSSLRSEDTAVYYCAGTDLAYWGQGTLVTVSS
VL: EIVMTQSPGTLSLSPGERATLSCHASQNINVWLSWYQQKPGQAPRLLIYKASNLHTGIPDRFSGSGSGTDFTLTISRLEPEDFAVYYCQQGQSYPFTFGQGTKVEIK
notes: Humanized from mouse 17C6A; also called humanized anti-CD47 mAb H8L10
The IC50 is the point on the concentration scale where inhibition reaches its midpoint. On to B1, for which the 50% inhibitory concentration (IC50) amounted to 1.05 nM.

B2: H6L5 (antibody, V domains shown)
VH: QIQLVQSGAEVKKPGASVKVSCKASGYTFTAYYINWVRQAPGQRLEWIGWIYPGSGNTKYNEKFKGRVTLTVDTSASTAYIELSSLRSEDTAVYFCARRGPWYFDVWGQGTTVTVSS
VL: EIVMTQSPATLSLSPGERATLSCRASENVGTYVSWYQQKPGQAPNLLIYGASNRYTGIPARFSGSGSGTDFTLTISSLQPEDFAVYHCGQTYSYPLTFGQGTKLEIK
notes: also called humanized anti-CD47 mAb H6L5
Take B2: the IC50 is 9.67 nM.

B3: H5L5 (antibody, V domains shown)
VH: B2 VH with F95Y
VL: B2 VL
notes: also called humanized anti-CD47 mAb H5L5
For the molecule B3, the IC50 was found to be 15.1 nM.

B4: H6L8 (antibody, V domains shown)
VH: B2 VH
VL: B2 VL with E1N, R24K, A43S, I58V, A60D, G68A, V85D
notes: also called humanized anti-CD47 mAb H6L8
Turning to B4, the IC50 is 13.2 nM.

B5: H6L7 (antibody, V domains shown)
VH: B2 VH
VL: B2 VL with R24K, A43S, A60D
notes: also called humanized anti-CD47 mAb H6L7
Turning to B5, the IC50 stood at 39.2 nM.

B6: H2L3 (antibody, V domains shown)
VH: QVQLVQSGAEVKKPGASVKLSCKASGYTFTSYWMHWVRQAPGQGLEWMGNIDPSDSETHYNQKFKDRVTLTVDTSTSTAYMELSSLRSEDTAVYYCSRWGYYGKSAMDYWGQGTLVTVSS
VL: AVQLTQSPSFLSASVGQRITINCRASKSISKYLAWYQEKPGKANKLLIYSGSTLQSGIPSRFSGSGSGTDFTLTISSLQPEDFAMYYCQQHNEYPWTFGGGTKVEIK
notes: also called humanized anti-CD47 mAb H2L3
B6: the IC50 stood at 9.56 nM.

B7: H1L2 (antibody, V domains shown)
VH: B6 VH with L20V, A79V
VL: B6 VL with E38Q, I58V, D70E
notes: Humanized from mouse 13B18A; also called humanized anti-CD47 mAb H1L2
As for B7, the IC50 is 6.8 nM.

B8: H3L9 (antibody, V domains shown)
VH: B6 VH with M48I, V68A
VL: B6 VL with A1D, Q17D, I19V, N22T, E38Q, I58V, D70E
notes: also called humanized anti-CD47 mAb H3L9
Regarding B8, the IC50 was 9.6 nM.

B9: H2L4 (antibody, V domains shown)
VH: B6 VH
VL: B6 VL with L4I, R18T, Q79E
notes: also called humanized anti-CD47 mAb H2L4
For B9, the IC50 stood at 6.52 nM.

B10: H1L4 (antibody, V domains shown)
VH: B6 VH with L20V, A79V
VL: B6 VL with L4I, R18T, Q79E
notes: also called humanized anti-CD47 mAb H1L4
In the case of B10, the IC50 was 8.09 nM.

B11: H1L3 (antibody, V domains shown)
VH: B6 VH with L20V, A79V
VL: B6 VL
notes: also called humanized anti-CD47 mAb H1L3
Turning to B11, the IC50 came to 7.43 nM.

B12: H3L2 (antibody, V domains shown)
VH: B6 VH with M48I, V68A
VL: B6 VL with E38Q, I58V, D70E
notes: also called humanized anti-CD47 mAb H3L2
Consider B12, for which the IC50 was found to be 7.88 nM.

B13: H3L4 (antibody, V domains shown)
VH: B6 VH with M48I, V68A
VL: B6 VL with L4I, R18T, Q79E
notes: also called humanized anti-CD47 mAb H3L4
Take B13: the IC50 came out at 5.35 nM.

B14: H2L1 (antibody, V domains shown)
VH: B6 VH
VL: B6 VL with Q17D, I19V, N22T, E38Q, I58V, D70E
notes: also called humanized anti-CD47 mAb H2L1
With B14, the IC50 is 4.73 nM.
